The source of these data is patent publication US20250352667A1.

For test [1], the target named is KEAP1 (wild-type full-length), His-tagged (human) (UniProt Q14145). Description: AlphaScreen; FLAG-NRF2 wt isoform 1 38.4 nM, His-KEAP1 150 nM; Rep 2; positive control for Q75R.
The target is the same in test [2]. In words: AlphaScreen; mean over 9.6, 19.2 and 38.4 nM NRF2 wt isoform 1, KEAP1 150 nM; reference for Q75R.
For test [3] the target is unchanged. Description: AlphaScreen; 614.4 nM FLAG-NRF2, 150 nM His-KEAP1; Rep 2; control for I86V.
For test [4] the target is unchanged. In words: AlphaScreen; 4.8 nM FLAG-NRF2, 150 nM His-KEAP1; Rep 1; control for I28V.
Test [5] shares this target. Description: AlphaScreen; NRF2 wt isoform 1 9.6 nM, KEAP1 150 nM; set as the 100 % reference for I86V.
For test [6] the target is unchanged. In words: AlphaScreen; NRF2 wt isoform 1 153.6 nM, KEAP1 150 nM; signal against NRF2-only control; control for Q75R. On the technique in general: Alpha assays give light when donor and acceptor beads are brought close together.
For test [7] the target is unchanged. In words: AlphaScreen; FLAG-NRF2 wt isoform 1 2.4 nM, His-KEAP1 150 nM; Rep 1; positive control for Q75R.
Test [8] shares this target. Description: AlphaScreen; FLAG-NRF2 wt isoform 1 38.4 nM, His-KEAP1 150 nM; Rep 2; positive control for I86V.
Test [9] has the same target. Description: AlphaScreen; 153.6 nM FLAG-NRF2, 150 nM His-KEAP1; signal against NRF2 only; control for I28V.
For test [10] the target is unchanged. In words: AlphaScreen; 38.4 nM FLAG-NRF2, 150 nM His-KEAP1; Repeat 2 (same value as in Table 26).
Test [11] has the same target. Description: AlphaScreen; 614.4 nM FLAG-NRF2, 150 nM His-KEAP1; Rep 2; control for I28V.
Test [12] has the same target. Description: AlphaScreen; NRF2 wt isoform 1 19.2 nM, KEAP1 150 nM; signal against NRF2-only control; control for I86V.
For test [13] the target is unchanged. In words: AlphaScreen; NRF2 wt isoform 1 19.2 nM, KEAP1 150 nM; set as the 100 % reference for Q75R.
Test [14] has the same target. Description: AlphaScreen; FLAG-NRF2 wt isoform 1 4.8 nM, His-KEAP1 150 nM; Rep 1; positive control for Q75R.
The target is the same in test [15]. Description: AlphaScreen; FLAG-NRF2 wt isoform 1 38.4 nM, His-KEAP1 150 nM; Rep 1; positive control for I86V.
The target is the same in test [16]. In words: AlphaScreen; 38.4 nM FLAG-NRF2, 150 nM His-KEAP1; Repeat 1 (same value as in Table 26).
Test [17] shares this target. Description: AlphaScreen; FLAG-NRF2 wt isoform 1 19.2 nM, His-KEAP1 150 nM; Rep 2; positive control for Q75R.
Test [18] shares this target. Description: AlphaScreen; 38.4 nM FLAG-NRF2, 150 nM His-KEAP1; signal against NRF2 only.
For test [19] the target is unchanged. Description: AlphaScreen; 2.4 nM FLAG-NRF2, 150 nM His-KEAP1; Rep 1.
The target is the same in test [20]. Description: AlphaScreen; FLAG-NRF2 Q75R 307.2 nM, His-KEAP1 150 nM; Rep 1.
For test [21] the target is unchanged. Description: AlphaScreen; NRF2 Q75R 76.8 nM, KEAP1 150 nM; signal against NRF2-only control.
The target is the same in test [22]. Description: AlphaScreen; FLAG-NRF2 Q75R 38.4 nM, His-KEAP1 150 nM; Rep 2.
For test [23] the target is unchanged. In words: AlphaScreen; FLAG-NRF2 Q75R 38.4 nM, His-KEAP1 150 nM; Repeat 1.
Test [24] has the same target. In words: AlphaScreen; FLAG-NRF2 Q75R 9.6 nM, His-KEAP1 150 nM; Repeat 2.
The target is the same in test [25]. Description: AlphaScreen; FLAG-NRF2 I86V 4.8 nM, His-KEAP1 150 nM; Rep 2.
The target is the same in test [26]. In words: AlphaScreen; FLAG-NRF2 I86V 614.4 nM, His-KEAP1 150 nM; Rep 3.
Test [27] has the same target. In words: AlphaScreen; FLAG-NRF2 I86V 153.6 nM, His-KEAP1 150 nM; Rep 2.

Chain of KEAP1 (wild-type full-length), His-tagged (human) (Q14145 2-624 limits assumed): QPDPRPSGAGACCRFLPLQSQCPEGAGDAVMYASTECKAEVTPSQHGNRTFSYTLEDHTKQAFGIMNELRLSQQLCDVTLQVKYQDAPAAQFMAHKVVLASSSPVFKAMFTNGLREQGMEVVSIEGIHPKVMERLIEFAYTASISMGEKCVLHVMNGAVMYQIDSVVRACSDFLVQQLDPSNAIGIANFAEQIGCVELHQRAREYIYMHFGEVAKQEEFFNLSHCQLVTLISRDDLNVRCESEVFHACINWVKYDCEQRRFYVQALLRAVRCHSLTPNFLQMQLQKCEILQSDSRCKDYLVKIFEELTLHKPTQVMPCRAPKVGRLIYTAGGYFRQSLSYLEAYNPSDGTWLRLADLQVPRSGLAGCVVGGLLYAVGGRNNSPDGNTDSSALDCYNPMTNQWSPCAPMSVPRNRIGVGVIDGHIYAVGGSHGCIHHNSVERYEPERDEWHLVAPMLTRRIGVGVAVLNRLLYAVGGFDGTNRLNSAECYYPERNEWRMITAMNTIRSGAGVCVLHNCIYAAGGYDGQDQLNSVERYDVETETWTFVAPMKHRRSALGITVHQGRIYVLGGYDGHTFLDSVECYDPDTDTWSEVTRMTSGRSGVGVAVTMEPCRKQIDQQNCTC

B1: NRF2 isoform 1 (wild-type full-length), FLAG-tagged (protein)
chain: MMDLELPPPGLPSQQDMDLIDILWRQDIDLGVSREVFDFSQRRKEYELEKQKKLEKERQEQLQKEQEKAFFAQLQLDEETGEFLPIQPAQHIQSETSGSANYSQVAHIPKSDALYFDDCMQLLAQTFPFVDDNEVSSATFQSLVPDIPGHIESPVFIATNQAQSPETSVAQVAPVDLDGMQQDIEQVWEELLSIPELQCLNIENDKLVETTMVPSPEAKLTEVDNYHFYSSIPSMEKEVGNCSPHFLNAFEDSFSSILSTEDPNQLTVNSLNSDATVNTDFGDEFYSAFIAEPSISNSMPSPATLSHSLSELLNGPIDVSDLSLCKAFNQNHPESTAEFNDSDSGISLNTSPSVASPEHSVESSSYGDTLLGLSDSEVEELDSAPGSVKQNGPKTPVHSSGDMVQPLSPSQGQSTHVHDAQCENTPEKELPVSPGHRKTPFTKDKHSSRLEAHLTRDELRAKALHIPFPVEKIINLPVVDFNEMMSKEQFNEAQLALIRDIRRRGKNKVAAQNCRKRKLENIVELEQDLDHLKDEKEKLLKEKGENDKSLHLLKKQLSTLYLEVFSMLRDEDGKPYSPSEYSLQQTRDGNVFLVPKSKKPDVKKN
B1: the A-counts (NRF2 plus KEAP1) in test [1] worked out at 1450 A-counts; in [7], 419 A-counts; in [8] it was 2850 A-counts; in test [14] it was 725 A-counts; in [15], 3100 A-counts; in test [17] it was 1480 A-counts. This molecule also had an Average Binding in test [2] of 100%. Also, the A-counts in test [3] came out at 2520 A-counts; in test [4], 1120 A-counts; in test [10], 1900 A-counts; in [11], 1810 A-counts; in test [16], 2000 A-counts. The Binding Percentage in test [5] and in [13] was 100% each time. The S/N worked out at 2.1 in test [6], 1.9 in test [9] and 4.1 in [12].

B2: NRF2 isoform 1 (I28V full-length), FLAG-tagged (protein)
chain: MMDLELPPPGLPSQQDMDLIDILWRQDVDLGVSREVFDFSQRRKEYELEKQKKLEKERQEQLQKEQEKAFFAQLQLDEETGEFLPIQPAQHIQSETSGSANYSQVAHIPKSDALYFDDCMQLLAQTFPFVDDNEVSSATFQSLVPDIPGHIESPVFIATNQAQSPETSVAQVAPVDLDGMQQDIEQVWEELLSIPELQCLNIENDKLVETTMVPSPEAKLTEVDNYHFYSSIPSMEKEVGNCSPHFLNAFEDSFSSILSTEDPNQLTVNSLNSDATVNTDFGDEFYSAFIAEPSISNSMPSPATLSHSLSELLNGPIDVSDLSLCKAFNQNHPESTAEFNDSDSGISLNTSPSVASPEHSVESSSYGDTLLGLSDSEVEELDSAPGSVKQNGPKTPVHSSGDMVQPLSPSQGQSTHVHDAQCENTPEKELPVSPGHRKTPFTKDKHSSRLEAHLTRDELRAKALHIPFPVEKIINLPVVDFNEMMSKEQFNEAQLALIRDIRRRGKNKVAAQNCRKRKLENIVELEQDLDHLKDEKEKLLKEKGENDKSLHLLKKQLSTLYLEVFSMLRDEDGKPYSPSEYSLQQTRDGNVFLVPKSKKPDVKKN
Molecule B2 came in with a S/N in [18] of 2.7. Further, the A-counts in test [19] was determined as 697 A-counts.

B3: NRF2 isoform 1 (Q75R full-length), FLAG-tagged (protein)
chain: MMDLELPPPGLPSQQDMDLIDILWRQDIDLGVSREVFDFSQRRKEYELEKQKKLEKERQEQLQKEQEKAFFAQLRLDEETGEFLPIQPAQHIQSETSGSANYSQVAHIPKSDALYFDDCMQLLAQTFPFVDDNEVSSATFQSLVPDIPGHIESPVFIATNQAQSPETSVAQVAPVDLDGMQQDIEQVWEELLSIPELQCLNIENDKLVETTMVPSPEAKLTEVDNYHFYSSIPSMEKEVGNCSPHFLNAFEDSFSSILSTEDPNQLTVNSLNSDATVNTDFGDEFYSAFIAEPSISNSMPSPATLSHSLSELLNGPIDVSDLSLCKAFNQNHPESTAEFNDSDSGISLNTSPSVASPEHSVESSSYGDTLLGLSDSEVEELDSAPGSVKQNGPKTPVHSSGDMVQPLSPSQGQSTHVHDAQCENTPEKELPVSPGHRKTPFTKDKHSSRLEAHLTRDELRAKALHIPFPVEKIINLPVVDFNEMMSKEQFNEAQLALIRDIRRRGKNKVAAQNCRKRKLENIVELEQDLDHLKDEKEKLLKEKGENDKSLHLLKKQLSTLYLEVFSMLRDEDGKPYSPSEYSLQQTRDGNVFLVPKSKKPDVKKN
As to B3, the A-counts (NRF2 plus KEAP1) in test [20] is 995 A-counts; in test [22], 1280 A-counts; in test [23], 1200 A-counts; in [24] it was 1090 A-counts. The same molecule registered a S/N in test [21] of 1.8.

B4: NRF2 isoform 1 (I86V full-length), FLAG-tagged (protein)
chain: MMDLELPPPGLPSQQDMDLIDILWRQDIDLGVSREVFDFSQRRKEYELEKQKKLEKERQEQLQKEQEKAFFAQLQLDEETGEFLPVQPAQHIQSETSGSANYSQVAHIPKSDALYFDDCMQLLAQTFPFVDDNEVSSATFQSLVPDIPGHIESPVFIATNQAQSPETSVAQVAPVDLDGMQQDIEQVWEELLSIPELQCLNIENDKLVETTMVPSPEAKLTEVDNYHFYSSIPSMEKEVGNCSPHFLNAFEDSFSSILSTEDPNQLTVNSLNSDATVNTDFGDEFYSAFIAEPSISNSMPSPATLSHSLSELLNGPIDVSDLSLCKAFNQNHPESTAEFNDSDSGISLNTSPSVASPEHSVESSSYGDTLLGLSDSEVEELDSAPGSVKQNGPKTPVHSSGDMVQPLSPSQGQSTHVHDAQCENTPEKELPVSPGHRKTPFTKDKHSSRLEAHLTRDELRAKALHIPFPVEKIINLPVVDFNEMMSKEQFNEAQLALIRDIRRRGKNKVAAQNCRKRKLENIVELEQDLDHLKDEKEKLLKEKGENDKSLHLLKKQLSTLYLEVFSMLRDEDGKPYSPSEYSLQQTRDGNVFLVPKSKKPDVKKN
Regarding B4, the A-counts (NRF2 plus KEAP1) was 2110 A-counts in test [25], 1920 A-counts in test [26] and 2580 A-counts in [27].
